Data on 36 variants can be found in the Human Domainome abundance scans (Beltran et al. 2025).

B1: POU domain, class 3, transcription factor 2, residues 262 to 338; numbered along this chain, P20265 (parent)
chain: EDTPTSDDLEQFAKQFKQRRIKLGFTQADVGLALGTLYGNVFSQTTICRFEALQLSFKNMCKLKPLLNKWLEEADSS

± gives the uncertainty stated by the source.

This data set covers variants of B1. Briefly: abundance fitness (aPCA) (normalised: wild type 0, dead -1); higher = more abundant; growth selection in yeast, the domain comes from the species named. The following applies: Homo sapiens.
Turning to EDTPTSDDLEQFAKQFKQRRIKLGFTQADVGLALGTLYGNVFSQTTSCRFEALQLSFKNMCKLKPLLNKWLEEADSS [I47S], the abundance fitness was -0.782 ± 0.081.

In the case of EDTPTSDDLEQFAKQFKQRRIKLGFTQADVGLALGTLYGNVFSQTTICRFKALQLSFKNMCKLKPLLNKWLEEADSS [E51K], the abundance fitness is -0.666 ± 0.096.

For EDTPTSDDLEQFAKQFKQRRIKLGFTQADVGLALGTLYGNVFSQTTICRFDALQLSFKNMCKLKPLLNKWLEEADSS [E51D], the abundance fitness is -0.638 ± 0.12.

For the variant EDTPTSDDLEQFAKQFKQRRIKLGFTQADVGLALGTLYGNVFSQTTICRFAALQLSFKNMCKLKPLLNKWLEEADSS [E51A], the abundance fitness is -0.855 ± 0.072.

Take EDTPTSDDLEQFAKQFKQRRIKLGFTQADVGLALGTLYGNVFSQTTICRFGALQLSFKNMCKLKPLLNKWLEEADSS [E51G]: the abundance fitness was -0.818 ± 0.058.

Take EDTPTSDDLEQFAKQFKQRRIKLGFTQADVGLALGTLYGNVFSQTTICRFIALQLSFKNMCKLKPLLNKWLEEADSS [E51I]: the abundance fitness was -0.503 ± 0.14.

With EDTPTSDDLEQFAKQFKQRRIKLGFTQADVGLALGTLYGNVFSQTTIDRFEALQLSFKNMCKLKPLLNKWLEEADSS [C48D], the abundance fitness came to 0.052 ± 0.048.

With EDTPTSDDLEQFAKQFKQRRIKLGFTQADVGLALGTLYGNVFSQTTIPRFEALQLSFKNMCKLKPLLNKWLEEADSS [C48P], the abundance fitness is -0.115 ± 0.044.

On to EDTPTSDDLEQFAKQFKQRRIKLGFTQADVGLALGTLYGNVFSQTTIRRFEALQLSFKNMCKLKPLLNKWLEEADSS [C48R], for which the abundance fitness turned out to be 0.004 ± 0.027.

For the variant EDTPTSDDLEQFAKQFKQRRIKLGFTQADVGLALGTLYGNVFSQTTIMRFEALQLSFKNMCKLKPLLNKWLEEADSS [C48M], the abundance fitness was found to be 0.059 ± 0.043.

Turning to EDTPTSDDLEQFAKQFKQRRIKLGFTQADVGLALGTLYGNVFSQTTIARFEALQLSFKNMCKLKPLLNKWLEEADSS [C48A], the abundance fitness worked out at 0.086 ± 0.03.

As for EDTPTSDDLEQFAKQFKQRRIKLGFTQADVGLALGTLYGNVFSQTTIVRFEALQLSFKNMCKLKPLLNKWLEEADSS [C48V], the abundance fitness was -0.099 ± 0.026.

Take EDTPTSDDLEQFAKQFKQRRIKLGFTQADVGLALGTLYGNVFSQTTITRFEALQLSFKNMCKLKPLLNKWLEEADSS [C48T]: the abundance fitness is -0.064 ± 0.037.

For EDTPTSDDLEQFAKQFKQRRIKLGFTQADVGLALGTLYGNVFSQTTINRFEALQLSFKNMCKLKPLLNKWLEEADSS [C48N], the abundance fitness was -0.071 ± 0.11.

On to EDTPTSDDLEQFAKQFKQRRIKLGFTQADVGLALGTLYGNVFSQTTIHRFEALQLSFKNMCKLKPLLNKWLEEADSS [C48H], for which the abundance fitness was -0.029 ± 0.072.

Regarding EDTPTSDDLEQFAKQFKQRRIKLGFTQADVGLALGTLYGNVFSQTTIIRFEALQLSFKNMCKLKPLLNKWLEEADSS [C48I], the abundance fitness was -0.134 ± 0.061.

Take EDTPTSDDLEQFAKQFKQRRIKLGFTQADVGLALGTLYGNVFSQTTIFRFEALQLSFKNMCKLKPLLNKWLEEADSS [C48F]: the abundance fitness was -0.2 ± 0.075.

For EDTPTSDDLEQFAKQFKQRRIKLGFTQADVGLALGTLYGNVFSQTTISRFEALQLSFKNMCKLKPLLNKWLEEADSS [C48S], the abundance fitness stood at 0.029 ± 0.033.

With EDTPTSDDLEQFAKQFKQRRIKLGFTQADVGLALGTLYGNVFSQTTIERFEALQLSFKNMCKLKPLLNKWLEEADSS [C48E], the abundance fitness was found to be 0.085 ± 0.035.

Consider EDTPTSDDLEQFAKQFKQRRIKLGFTQADVGLALGTLYGNVFSQTTIGRFEALQLSFKNMCKLKPLLNKWLEEADSS [C48G], for which the abundance fitness was found to be 0.022 ± 0.025.

Turning to EDTPTSDDLEQFAKQFKQRRIKLGFTQADVGLALGTLYGNVFSQTTILRFEALQLSFKNMCKLKPLLNKWLEEADSS [C48L], the abundance fitness was -0.152 ± 0.034.

EDTPTSDDLEQFAKQFKQRRIKLGFTQADVGLALGTLYGNVFSQTTIKRFEALQLSFKNMCKLKPLLNKWLEEADSS [C48K]: the abundance fitness was 0.066 ± 0.047.

As to EDTPTSDDLEQFAKQFKQRRIKLGFTQADVGLALGTLYGNVFSQTTIWRFEALQLSFKNMCKLKPLLNKWLEEADSS [C48W], the abundance fitness was -0.108 ± 0.036.

Consider EDTPTSDDLEQFAKQFKQRRIKLGFTQADVGLALGTLYGNVFSQTTIQRFEALQLSFKNMCKLKPLLNKWLEEADSS [C48Q], for which the abundance fitness worked out at 0.134 ± 0.046.

As for EDTPTSDDLEQFAKQFKQRRIKLGFTQADVGLALGTLYGNVFSQTTICKFEALQLSFKNMCKLKPLLNKWLEEADSS [R49K], the abundance fitness is 0.05 ± 0.045.

Regarding EDTPTSDDLEQFAKQFKQRRIKLGFTQADVGLALGTLYGNVFSQTTICDFEALQLSFKNMCKLKPLLNKWLEEADSS [R49D], the abundance fitness came out at 0.006 ± 0.054.

As to EDTPTSDDLEQFAKQFKQRRIKLGFTQADVGLALGTLYGNVFSQTTICQFEALQLSFKNMCKLKPLLNKWLEEADSS [R49Q], the abundance fitness was 0.045 ± 0.04.

Take EDTPTSDDLEQFAKQFKQRRIKLGFTQADVGLALGTLYGNVFSQTTICEFEALQLSFKNMCKLKPLLNKWLEEADSS [R49E]: the abundance fitness was 0.026 ± 0.032.

Consider EDTPTSDDLEQFAKQFKQRRIKLGFTQADVGLALGTLYGNVFSQTTICVFEALQLSFKNMCKLKPLLNKWLEEADSS [R49V], for which the abundance fitness is -0.868 ± 0.073.

Consider EDTPTSDDLEQFAKQFKQRRIKLGFTQADVGLALGTLYGNVFSQTTICCFEALQLSFKNMCKLKPLLNKWLEEADSS [R49C], for which the abundance fitness was -0.691 ± 0.1.

For EDTPTSDDLEQFAKQFKQRRIKLGFTQADVGLALGTLYGNVFSQTTICGFEALQLSFKNMCKLKPLLNKWLEEADSS [R49G], the abundance fitness was -0.242 ± 0.027.

Regarding EDTPTSDDLEQFAKQFKQRRIKLGFTQADVGLALGTLYGNVFSQTTICYFEALQLSFKNMCKLKPLLNKWLEEADSS [R49Y], the abundance fitness is -0.499 ± 0.12.

In the case of EDTPTSDDLEQFAKQFKQRRIKLGFTQADVGLALGTLYGNVFSQTTICSFEALQLSFKNMCKLKPLLNKWLEEADSS [R49S], the abundance fitness was -0.175 ± 0.034.

For EDTPTSDDLEQFAKQFKQRRIKLGFTQADVGLALGTLYGNVFSQTTICMFEALQLSFKNMCKLKPLLNKWLEEADSS [R49M], the abundance fitness is -0.125 ± 0.042.

With EDTPTSDDLEQFAKQFKQRRIKLGFTQADVGLALGTLYGNVFSQTTICFFEALQLSFKNMCKLKPLLNKWLEEADSS [R49F], the abundance fitness is -0.694 ± 0.18.

In the case of EDTPTSDDLEQFAKQFKQRRIKLGFTQADVGLALGTLYGNVFSQTTICHFEALQLSFKNMCKLKPLLNKWLEEADSS [R49H], the abundance fitness is -0.314 ± 0.09.
